Assay results from article PMC11772769 (2024).
Positions count from the first letter of the chain named. Where no end group is shown, it is not given here. The star is where a group is joined. 5FAM = O=C1OC2(c3ccc(O)cc3Oc3cc(O)ccc32)c2ccc(C(=O)*)cc21

T1: MBP-SNX17 L470G (UniProt Q15036 1-470, L470G)
T1 sequence: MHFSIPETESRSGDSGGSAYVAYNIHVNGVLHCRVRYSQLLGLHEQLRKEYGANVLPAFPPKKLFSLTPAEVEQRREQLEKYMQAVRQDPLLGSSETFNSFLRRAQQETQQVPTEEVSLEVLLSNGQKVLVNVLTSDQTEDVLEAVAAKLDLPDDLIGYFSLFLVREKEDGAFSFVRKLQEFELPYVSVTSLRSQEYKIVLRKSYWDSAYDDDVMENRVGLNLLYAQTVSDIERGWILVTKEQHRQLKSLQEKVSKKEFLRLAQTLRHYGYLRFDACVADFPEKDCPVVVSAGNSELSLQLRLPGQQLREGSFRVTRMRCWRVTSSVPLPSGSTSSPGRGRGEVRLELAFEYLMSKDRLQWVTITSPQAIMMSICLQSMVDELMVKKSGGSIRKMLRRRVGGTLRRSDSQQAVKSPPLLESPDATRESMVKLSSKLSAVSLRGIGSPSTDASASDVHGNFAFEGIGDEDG

T2: MBP-SNX17 (full-length, wild-type) (UniProt Q15036 1-470)
T2 chain: T1 sequence with G470L

T3: MBP-SNX17 D467X (UniProt Q15036 1-466)
T3 chain: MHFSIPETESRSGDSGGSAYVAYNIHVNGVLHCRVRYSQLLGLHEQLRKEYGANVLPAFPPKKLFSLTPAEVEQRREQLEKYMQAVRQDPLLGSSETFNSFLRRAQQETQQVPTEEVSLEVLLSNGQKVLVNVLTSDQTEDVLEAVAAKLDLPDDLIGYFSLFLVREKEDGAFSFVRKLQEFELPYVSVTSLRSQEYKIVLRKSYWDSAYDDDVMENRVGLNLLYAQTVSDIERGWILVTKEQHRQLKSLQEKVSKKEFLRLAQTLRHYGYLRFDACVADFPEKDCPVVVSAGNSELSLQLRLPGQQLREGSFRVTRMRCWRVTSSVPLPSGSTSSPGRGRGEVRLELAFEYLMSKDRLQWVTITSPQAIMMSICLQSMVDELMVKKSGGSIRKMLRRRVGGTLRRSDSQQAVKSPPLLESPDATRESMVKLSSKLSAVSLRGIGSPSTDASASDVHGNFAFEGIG


Key:
Experiment in all cases: FP
[1] = biological target: T1, MBP-SNX17 L470G
[2] = biological target: T2, MBP-SNX17 (full-length, wild-type)
[3] = biological target: T3, MBP-SNX17 D467X

Binder	Kd [1] [nM]	Kd [2] [nM]	Kd [3] [nM]
5FAM-KLITYDNPAYEGID [Peptide L2_(14mer)]	1100	1100	3200
5FAM-MNVEIGNPTYKMYE [Peptide LRP1_(14mer)]	2800	3000	8500
